According to PMC2746283, “BtubA-BtubB Heterodimer Is an Essential Intermediate in Protofilament Assembly” (PLoS ONE, 2009):

Molecular target: T1, BtubA-E258K (P. dejongeii, UniProt Q8GCC5 1-473, E258K)
T1 construct: BtubA of Prosthecobacter dejongeii (GenBank AY186779) with the point mutation E258K; also called within-dimer mutant of BtubA; source: E. coli, purified as described previously [3], with an added Sephacryl HR-100 column step; not shown: His tag, N-terminal, kept
T1 sequence: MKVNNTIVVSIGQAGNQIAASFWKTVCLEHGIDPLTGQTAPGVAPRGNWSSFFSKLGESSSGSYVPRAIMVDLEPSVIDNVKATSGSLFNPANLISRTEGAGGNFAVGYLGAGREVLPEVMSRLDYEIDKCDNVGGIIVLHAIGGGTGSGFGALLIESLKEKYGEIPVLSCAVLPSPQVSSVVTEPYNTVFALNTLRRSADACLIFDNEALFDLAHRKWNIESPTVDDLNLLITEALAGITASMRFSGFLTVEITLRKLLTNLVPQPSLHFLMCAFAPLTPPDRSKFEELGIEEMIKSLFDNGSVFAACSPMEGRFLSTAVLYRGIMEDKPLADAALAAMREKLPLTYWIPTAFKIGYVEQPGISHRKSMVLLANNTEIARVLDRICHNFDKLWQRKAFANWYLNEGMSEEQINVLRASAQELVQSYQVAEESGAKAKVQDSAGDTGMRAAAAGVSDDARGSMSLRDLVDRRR
Test: AUC; sedimentation equilibrium of BtubA + BtubB mixtures, 20°C, 10,000-14,000 rpm, HMK buffer (50 mM Hepes, 5 mM MgAc, 350 mM KAc, 1 mM EGTA, pH 7.7), no GTP; molar ratios 1:4 to 4:1, each protein 8 to 32 µM; global fit to a monomer-dimer model (HeteroAnalysis)
Settings: both partners purified

B1: BtubB-N100E (natural protein)
chain: VREILSIHVGQCGNQIADSFWRLALREHGLTEAGTLKEGSNAAANSNMEVFFHKVRDGKYVPRAVLVDLEPGVIARIEGGDMSQLFDESSIVRKIPGAAENWARGYNVEGEKVIDQIMNVIDSAVEKTKGLQGFLMTHSIGGGSGSGLGSLILERLRQAYPKKRIFTFSVVPSPLISDSAVEPYNAILTLQRILDNADGAVLLDNEALFRIAKAKLNRSPNYMDLNNIIALIVSSVTASLRFPGKLNTDLSEFVTNLVPFPGNHFLTASFAPMRGAGQEGQVRTNFPDLARETFAQDNFTAAIDWQQGVYLAASALFRGDVKAKDVDENMATIRKSLNYASYMPASGGLKLGYAETAPEGFASSGLALVNHTGIAAVFERLIAQFDIMFDNHAYTHWYENAGVSRDMMAKARNQIATLAQSYRDAS
notes: BtubB of Prosthecobacter (species printed only for BtubA: P. dejongeii) with the point mutation N100E; also called within-dimer mutant of BtubB; source: E. coli, purified as described previously [3], with an added Sephacryl HR-100 column step; not shown: His tag, N-terminal, kept
For B1, the Kd was 61 µM.
